One assay deals with T1, cathepsin B (Homo sapiens, UniProt P07858).
T1 construct: purchased R&D Systems 953-CY-010
Nature of the assay: pH profile of cathepsin B activity with peptide-AMC substrates. The format is biochemical. Conditions: substrate 60 μM. As to the method: Cathepsin B activity assayed by fluorogenic peptide substrates. Proteolytic assays of cathepsin B were conducted with Z-Arg-Lys-AMC and Z-Gly-Lys-AMC substrates in 50 mM citrate phosphate at pH 7.2 or pH 4.6, 1 mM EDTA, 100 mM NaCl, and 5 mM DTT. Assays with Z-Phe-Arg-AMC substrate were conducted under identical conditions and included 0.01% Tween20. Assays were performed in 384 well plates at 25° C. in a total volume of 30 μL. Fluorescence was quantified by a Biotek Synergy HTX microplate plate reader with excitation 360 nm, emission 460 nm, gain 50, top optics and read height 1 mm. Proteolytic activity is reported as relative fluorescent units per sec (RFU/sec), and was calculated using the highest slope recorded for 10 consecutive readings. Fluorescent readings were taken in 46 sec intervals and therefore activity is calculated over a total of 460 sec. To ensure that initial velocity is assessed, only readings within the first 30 minutes of the reaction were analyzed. RFU/sec readings were converted to enzyme specific activity of pmol/min/μg using the conversion factor of 1227 RFU per μM AMC.
To generate the pH profile of cathepsin B activity with the substrates Z-Arg-Lys-AMC, Z-Glu-Lys-AMC, and Z-Phe-Arg-AMC, 60 μM of each substrate and 0.04 ng/ul of cathepsin B were assayed in citrate phosphate buffers ranging from pH 2.2 to 7.4 in increments of 0.4 pH units, including pH 7.2. […]

The target in a further assay is T2, cathepsin L (Homo sapiens, UniProt P07711).
T2 construct: purchased R&D Systems 952-CY-010
T2 sequence (P07711 114-333): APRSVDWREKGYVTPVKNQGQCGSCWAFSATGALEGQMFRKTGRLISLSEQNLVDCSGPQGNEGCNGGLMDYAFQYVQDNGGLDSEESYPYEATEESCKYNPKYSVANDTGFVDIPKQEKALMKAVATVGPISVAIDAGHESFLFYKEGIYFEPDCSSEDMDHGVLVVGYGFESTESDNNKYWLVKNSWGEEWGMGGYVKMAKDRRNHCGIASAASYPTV
Nature of the assay: Specificity of peptide-AMC substrates: cathepsin L. Type of assay: biochemical.

The target in another assay is T3, cathepsin V (Homo sapiens, UniProt O60911).
T3 construct: purchased R&D Systems 1080-CY-010
Nature of the assay: Specificity of peptide-AMC substrates: cathepsin V. The format is biochemical.

The next assay deals with cathepsin X (UniProt Q9UBR2 24-303, limits assumed). Nature of the assay: cell-based or functional assay.
Chain of cathepsin X (Q9UBR2 24-303 limits assumed): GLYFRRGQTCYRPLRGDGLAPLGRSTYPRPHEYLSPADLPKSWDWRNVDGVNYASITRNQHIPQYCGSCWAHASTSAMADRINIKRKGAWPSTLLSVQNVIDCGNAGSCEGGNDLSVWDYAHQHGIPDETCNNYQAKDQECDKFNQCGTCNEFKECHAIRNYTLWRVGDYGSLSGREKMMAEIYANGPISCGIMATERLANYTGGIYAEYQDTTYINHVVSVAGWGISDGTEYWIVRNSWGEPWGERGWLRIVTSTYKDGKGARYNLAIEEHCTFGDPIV
Assay [1] concerns the target cathepsin C (R&D #1071-CY-010) (human, UniProt P53634 25-463). As to the kind of experiment: cell-based or functional assay.
For assay [2], the target named is T4, cathepsin H (R&D #75116-CY-010) (human, UniProt P09668 116-335).
T4 sequence (looked up): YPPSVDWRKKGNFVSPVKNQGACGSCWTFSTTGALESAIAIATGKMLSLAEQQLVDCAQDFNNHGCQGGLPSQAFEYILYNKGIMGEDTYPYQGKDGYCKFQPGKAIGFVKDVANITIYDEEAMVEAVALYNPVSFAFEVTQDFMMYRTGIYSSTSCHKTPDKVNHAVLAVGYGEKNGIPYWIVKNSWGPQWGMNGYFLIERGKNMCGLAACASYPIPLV
As to the kind of experiment: cell-based or functional assay.

In assay [3] the target is T5, cathepsin K (Abcam #ab157067) (human, UniProt P43235 115-329, limits assumed).
T5 sequence (looked up): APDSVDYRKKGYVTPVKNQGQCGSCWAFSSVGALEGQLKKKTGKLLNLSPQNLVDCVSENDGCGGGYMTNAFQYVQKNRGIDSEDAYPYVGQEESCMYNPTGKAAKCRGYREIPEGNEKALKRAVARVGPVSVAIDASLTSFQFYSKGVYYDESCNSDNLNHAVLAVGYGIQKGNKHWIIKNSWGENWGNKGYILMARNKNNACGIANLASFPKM
As to the kind of experiment: cell-based or functional assay.

Assay [4] deals with cathepsin L (R&D #952-CY-010) (human, UniProt P07711 114-333). Nature of the assay: cell-based or functional assay.
Chain of cathepsin L (R&D #952-CY-010) (P07711 114-333): as the sequence (P07711 114-333) above
For assay [5], the target named is cathepsin S (R&D #1183-CY-010) (human, UniProt P25774 17-331). Nature of the assay: cell-based or functional assay.
Chain of cathepsin S (R&D #1183-CY-010) (P25774 17-331 limits assumed): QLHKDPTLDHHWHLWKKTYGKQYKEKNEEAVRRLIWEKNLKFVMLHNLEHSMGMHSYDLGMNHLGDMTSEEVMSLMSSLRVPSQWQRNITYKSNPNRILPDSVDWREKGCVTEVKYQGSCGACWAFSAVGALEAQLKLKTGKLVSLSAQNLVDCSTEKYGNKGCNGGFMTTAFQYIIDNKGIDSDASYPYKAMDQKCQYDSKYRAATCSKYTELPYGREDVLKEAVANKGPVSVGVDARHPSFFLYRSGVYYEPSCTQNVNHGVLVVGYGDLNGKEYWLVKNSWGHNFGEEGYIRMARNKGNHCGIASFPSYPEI
Assay [6] addresses T6, cathepsin V (R&D #1080-CY-010) (human, UniProt O60911 18-334).
T6 sequence (looked up): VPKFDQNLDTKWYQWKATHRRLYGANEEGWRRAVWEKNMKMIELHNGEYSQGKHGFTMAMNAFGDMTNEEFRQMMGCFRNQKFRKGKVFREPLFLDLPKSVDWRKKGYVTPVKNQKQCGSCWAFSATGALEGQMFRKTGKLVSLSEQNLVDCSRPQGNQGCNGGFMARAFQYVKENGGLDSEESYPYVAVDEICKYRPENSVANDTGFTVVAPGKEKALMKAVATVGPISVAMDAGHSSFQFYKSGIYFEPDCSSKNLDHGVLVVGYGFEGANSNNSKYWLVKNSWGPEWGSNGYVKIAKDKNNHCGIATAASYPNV
Nature of the assay: cell-based or functional assay.

Peptide text beside a SMILES is read from it. * marks the point of attachment. AOMK = acyloxymethyl ketone warhead replacing the C-terminal carboxyl; AMC = Cc1cc(=O)oc2cc(N*)ccc12; Cbz = O=C(OCc1ccccc1)*

Chain of cathepsin C (R&D #1071-CY-010) (P53634 25-463 limits assumed): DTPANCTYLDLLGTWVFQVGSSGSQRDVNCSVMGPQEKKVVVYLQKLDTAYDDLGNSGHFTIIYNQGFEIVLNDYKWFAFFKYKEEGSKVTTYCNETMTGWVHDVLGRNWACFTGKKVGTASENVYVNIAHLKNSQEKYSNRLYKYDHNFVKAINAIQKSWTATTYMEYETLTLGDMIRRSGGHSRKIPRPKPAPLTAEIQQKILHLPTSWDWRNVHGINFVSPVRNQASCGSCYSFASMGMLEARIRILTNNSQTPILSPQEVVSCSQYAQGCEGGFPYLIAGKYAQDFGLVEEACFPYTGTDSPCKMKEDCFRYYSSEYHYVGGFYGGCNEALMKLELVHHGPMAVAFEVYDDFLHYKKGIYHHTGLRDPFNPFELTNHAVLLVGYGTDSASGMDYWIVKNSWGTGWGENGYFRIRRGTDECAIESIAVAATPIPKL

On to `Cc1cc(=O)oc2cc(NC(=O)[C@H](CCCCN)NC(=O)[C@H](CCCNC(=N)N)NC(=O)OCc3ccccc3)ccc12` [Z-Arg-Lys-AMC] (Cbz-Arg-Lys-{AMC}), for which the “pH of maximal hydrolysis by cathepsin B” value at cathepsin B was 7.8. Further, the “substrate activity for cathepsin L” value on cathepsin L (pH 7.2 (data not shown)) is “no activity”. In addition, the “substrate activity for cathepsin V” value at cathepsin V (pH 7.2 (data not shown)) was “no activity”.
As for `Cc1cc(=O)oc2cc(NC(=O)[C@H](CCCCN)NC(=O)[C@H](CCC(=O)O)NC(=O)OCc3ccccc3)ccc12` [Z-Glu-Lys-AMC] (Cbz-Glu-Lys-{AMC}), the “pH of maximal hydrolysis by cathepsin B” value on cathepsin B is on record as 4.6. Besides, the “substrate activity for cathepsin L” value at cathepsin L (pH 4.6) is listed as “no activity”. Besides, the “substrate activity for cathepsin V” value on cathepsin V (pH 4.6) was “no activity”.
For Cbz-Arg-Lys-{AOMK} [Z-Arg-Lys-AOMK], in the assay with cathepsin X, the “% inhibition of enzyme activity at 16,000 nM inhibitor, pH 4.6” value (“% inhibition of enzyme activity … pH 4.6” for short) worked out at 21% and the “IC50 of inhibition of enzyme activity (MCA-Arg-Pro-Pro-Gly-Phe-Ser-Ala-Phe-Lys(Dnp)OH substrate), pH 4.6” value is over 16000 nM. Also, in assay [1], the “% inhibition of enzyme activity … pH 4.6” value is 6%; the “IC50 of inhibition of enzyme activity (Gly-Arg-AMC substrate), pH 4.6” value is over 16000 nM; the “IC50 of inhibition of enzyme activity (Gly-Arg-AMC substrate), pH 7.2” value came to 850 nM. Moreover, in assay [2], the “% inhibition of enzyme activity at 16,000 nM inhibitor, pH 7.2” value was 29% and the “IC50 of inhibition of enzyme activity (Arg-AMC substrate), pH 7.2” value was over 16000 nM. Further, in assay [3], the “% inhibition of enzyme activity at 16,000 nM inhibitor, pH 7.2” value turned out to be 31% and the “IC50 of inhibition of enzyme activity (Z-Phe-Arg-AMC substrate), pH 7.2” value is over 16000 nM. In addition, in assay [4], the “% inhibition of enzyme activity … pH 4.6” value was 32% and the “IC50 of inhibition of enzyme activity (Z-Phe-Arg-AMC substrate), pH 4.6” value is over 16000 nM. For the same molecule, in assay [5], the “% inhibition of enzyme activity … pH 4.6” value worked out at 13%; the “IC50 of inhibition of enzyme activity (Z-Phe-Arg-AMC substrate), pH 4.6” value is over 16000 nM; the “IC50 of inhibition of enzyme activity (Z-Phe-Arg-AMC substrate), pH 7.2” value stood at 2200 nM. Moreover, in [6], the “% inhibition of enzyme activity … pH 4.6” value turned out to be 63%; the “IC50 of inhibition of enzyme activity (Z-Phe-Arg-AMC substrate), pH 4.6” value is over 16000 nM; the “IC50 of inhibition of enzyme activity (Z-Phe-Arg-AMC substrate), pH 7.2” value was 440 nM.

These data come from patent US20240181068A1, “SELECTIVE NEUTRAL PH INHIBITOR OF CATHEPSIN B” (The Regents of the University of California, priority 2021, published 2024).
